Our source for the Mean relative activity values is patent US20220259593A1, “CONTROL OF MAMMALIAN GENE DOSAGE USING CRISPR” (The Regents of the University of California, priority 2019, published 2022).

The data set concerns K562 CRISPRi cells. Kind of data set: Constant region variant library pooled growth screen, K562. Conditions: sgRNA constant region variants; activity relative to the original, un-modified constant region cr995. Format: cell-based, human. The method in brief:
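K562 CRISPRi, duplicate transductions; puromycin 1 d 0.75 μg/mL then 1 d 0.85 μg/mL; >2000× coverage in spinner flasks; harvests at 4-8 d growth. Activity = phenotype ÷ phenotype with unmodified constant region.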

B1: cr535 (nucleic acid)
guide: GTTTAAGAGCTAAGCTGGAAACAGCATAGCAAGTTTAAATAAGGCTAGTCAGTTATCAACTTGAAAAAGTGGCACCGAGTCGGTGCT
modifications: listed as DNA, chemistry not fully specified
B1 gave a Mean relative activity of −0.0004281.

B2: cr828 (nucleic acid)
guide: GTTTAAGAGCTAAGCTGGAAACAGCATAGCAGGTTTAAATAAGGCTAGTCCGTTATCAACTTGAAAAAGTGGCACCGAGTCGGTGCT
modifications: listed as DNA, chemistry not fully specified
The molecule B2 gave a Mean relative activity of 1.028.

B3: cr921 (nucleic acid)
guide: GTTTAAGAGCTAAGCTGGAAACAGCATAGCAAAGTTAAATAAGGCTAGTCCGTTATCAACTTGAAAAAGTGGCACCGAGTCGGTGCT
modifications: listed as DNA, chemistry not fully specified
Molecule B3 returned a Mean relative activity of −0.002203.

B4: cr595 (nucleic acid)
guide: GTTTAAGAGCTAAGCTGGAAACAGCATAGCAAGTTTAAATAACGCTAGTCCGTTATCAACTTGAAAAAGTGGCACCGAGTCGGTGCT
modifications: listed as DNA, chemistry not fully specified
B4 returned a Mean relative activity of −0.002984.

B5: cr326 (nucleic acid)
guide: GTTTAAGAGCTAAGCTGGAAACAGCATAGCAAGCTTAAATAACGCTAGTCGGTTATCAACTTGAAAAAGTGGCACCGAGTCGGTGCT
modifications: listed as DNA, chemistry not fully specified
In the case of B5, the Mean relative activity was −0.001062.

B6: cr817 (nucleic acid)
guide: GTTTAAGAGCTAAGCTGGAAACAGCATAGCAAGGTTAAATAGGGCTAGTCCGTTATCAACTTGATAAAGTGGCACCGAGTCGGTGCT
modifications: listed as DNA, chemistry not fully specified
In the case of B6, the Mean relative activity is −0.002514.

B7: cr637 (nucleic acid)
guide: GTTTAAGAGCTAAGCTGGAAACAGCATATCAAGATTAAATAAGGCTAGTCCGTTATCAACTTGAGAAAGTGGCACCGAGTCGGTGCT
modifications: listed as DNA, chemistry not fully specified
In turn, B7 came in with a Mean relative activity of −0.001265.

B8: cr039 (nucleic acid)
guide: GATTATGAGCTAAGCTGGAAACAGCATAGCAAGTTTAAATAAGGCTAGTCCGTTATCAACTTGAAAAAGTGGCACCGAGTCGGTGCT
modifications: listed as DNA, chemistry not fully specified
Consider B8, for which the Mean relative activity is listed as −0.0006181.

B9: cr847 (nucleic acid)
guide: GTTTAAGAGCTAAGCTGGAAACAGCATAGCAAGCTTAAATAAGGCTAGTCCGTTATCAACTTGAAAAAGTGGCACCCAGTGGGTGCT
modifications: listed as DNA, chemistry not fully specified
On to B9, for which the Mean relative activity is −0.002682.

B10: cr751 (nucleic acid)
guide: GTTTAAGAGCTAAGCTGGAAACAGCATCGCAACTTTAAATAAGGCTAGTCCTTTATCAACTTGAAAAAGTGGCACCGAGTCGGTGCT
modifications: listed as DNA, chemistry not fully specified
For the molecule B10, the Mean relative activity is −0.000557.

B11: cr178 (nucleic acid)
guide: GTTTAAGAGCTAAGCTGGAAACAGCATAGCAATTTTAAATGAGGCTAGTCCGTTATCGACTTGAAAAAGTGGCACCGAGTCGGTGCT
modifications: listed as DNA, chemistry not fully specified
With B11, the Mean relative activity was −0.0008744.

B12: cr564 (nucleic acid)
guide: GTTTAAGAGCTAAGCTGGAAACAGCATAGCAAGGTTAAATAAGGCTAGTCCGTTATCAACTTGAAAAAGTGGCAGCGAGTCGCTGCT
modifications: listed as DNA, chemistry not fully specified
B12 registered a Mean relative activity of −0.001952.
